Experimental findings from paper PMC4694995 are described below.

The target of this assay is programmed cell death 1 (PD1), endogenous in mouse CD8+ T cells (mouse (endogenous in OT-1 and C57BL/6 CD8+ T cells)) (UniProt Q02242). The assay can be described thus: co-IP; Lag3-/- or Pdcd1-/- mouse CD8+ T cells retrovirally transduced with LAG3 or PD1 constructs (pMIG-II), sorted, rested in IL2, restimulated with IE9mp1 for 5 min or treated with pervanadate for 5 min; antibody-conjugated Dynal beads; Western blot, densitometry normalised to input. Background: A western blot detects proteins with antibodies after separation by electrophoresis.
Chain of programmed cell death 1 (PD1), endogenous in mouse CD8+ T cells (mouse (endogenous in OT-1 and C57BL/6 CD8+ T cells)) (Q02242 25-288): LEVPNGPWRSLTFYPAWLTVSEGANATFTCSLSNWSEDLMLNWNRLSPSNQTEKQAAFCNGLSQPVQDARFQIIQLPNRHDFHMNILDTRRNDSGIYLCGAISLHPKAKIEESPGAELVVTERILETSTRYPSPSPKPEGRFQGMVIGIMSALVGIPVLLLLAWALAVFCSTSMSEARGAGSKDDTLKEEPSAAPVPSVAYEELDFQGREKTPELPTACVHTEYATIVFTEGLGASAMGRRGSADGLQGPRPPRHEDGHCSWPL

Chain of Src-homology-2 domain-containing phosphatase SHP1, endogenous in mouse CD8+ T cells, P29351 1-595 (enzyme; other documents disagree on this pair) (P29351 whole entry): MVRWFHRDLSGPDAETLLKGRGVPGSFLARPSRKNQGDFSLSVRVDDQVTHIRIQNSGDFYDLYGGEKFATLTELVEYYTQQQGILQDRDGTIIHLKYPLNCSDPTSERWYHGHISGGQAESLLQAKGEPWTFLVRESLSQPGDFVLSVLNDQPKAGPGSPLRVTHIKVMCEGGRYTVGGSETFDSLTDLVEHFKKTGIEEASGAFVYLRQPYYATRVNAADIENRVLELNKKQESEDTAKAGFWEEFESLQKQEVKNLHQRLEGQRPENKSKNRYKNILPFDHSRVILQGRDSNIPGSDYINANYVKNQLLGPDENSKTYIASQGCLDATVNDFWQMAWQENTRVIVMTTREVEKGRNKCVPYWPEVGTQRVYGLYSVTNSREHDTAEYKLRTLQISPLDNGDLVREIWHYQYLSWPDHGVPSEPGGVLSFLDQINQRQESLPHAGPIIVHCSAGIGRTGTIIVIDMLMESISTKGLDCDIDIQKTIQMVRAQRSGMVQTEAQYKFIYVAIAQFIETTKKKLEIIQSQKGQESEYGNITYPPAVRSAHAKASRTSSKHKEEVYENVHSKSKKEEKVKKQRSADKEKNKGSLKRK

In the case of “LAG3 lacking the cytoplasmic domain, expressed from pMIG-LAG3ΔCY in Lag3-/- CD8+ T cells (domain or fragment)”, the amount pulled down by anti-PD1 antibody, against pLAG3 was 30 % lower.
“Src-homology-2 domain-containing phosphatase SHP1, endogenous in mouse CD8+ T cells, P29351 1-595 (enzyme; other documents disagree on this pair)” displayed an amount pulled down by anti-PD1 antibody in cells with pΔCY, against cells with pLAG3 of 20 % less.
